{
  "source": "patent US10550172B2",
  "about": "“Serpin reactive center loop peptides and methods of use” (University of Florida Research Foundation, Incorporated, priority 2015, dated 2020)",
  "molecules": {"B1": {"name": "Serp-1: secreted myxomavirus-derived protein (serpin) that binds and inhibits uPA, tPA, plasmin and factor X (protein)", "chain": "RDIGLWTFRYVYNESDNVVFSPYGLTSALSVLRIAAGGNTKREIDVPESVVEDSDAFLALRELFVDASVPLRPEFTAEFSSRFNTSVQRVTFNSENVKDVINSYVKDKTGGDVPRVLDASLDRDTKMLLLSSVRMKTSWRHVFDPSFTTDQPFYSGNVTYKVRMMNKIDTLKTETFTLRNVGYSVTELPYKRRQTAMLLVVPDDLGEIVRALDLSLVRFWIRNMRKDVCQVVMPKFSVESVLDLRDALQRLGVRDAFDPSRADFGQASPSNDLYVTKVLQTSKIEADERGTTASSDTAITLIPRNALTAIVANKPFMFLIYHKPTTTVLFMGTITKGEKVIYDTEGRDDVVSSV"}, "B2": {"name": "NSP: mammalian serpin, neuroserpin, that binds tPA and uPA (protein)", "chain": "TGATFPEEAIADLSVNMYNRLRATGEDENILFSPLSIALAMGMMELGAQGSTQKEIRHSMGYDSLKNGEEFSFLKEFSNMVTAKESQYVMKIANSLFVQNGFHVNEEFLQMMKKYFNAAVNHVDFSQNVAVANYINKWVENNTNNLVKDLVSPRDFDAATYLALINAVYFKGNWKSQFRPENTRTFSFTKDDESEVQIPMMYQQGEFYYGEFSDGSNEAGGIYQVLEIPYEGDEISMMLVLSRQEVPLATLEPLVKAQLVEEWANSVKKQKVEVYLPRFTVEQEIDLKDVLKALGITEIFIKDANLTGLSDNKEIFLSKAIHKSFLEVNEEGSEAAAVSGMIAISRMAVLYPQVIVDHPFFFLIRNRRTGTILFMGRVMHPETMNTSGHDFEEL"}},
  "key": {"[1]": {"tested_on": "aortic allograft (plaque growth)", "assay": "Mouse aortic allograft transplant model", "experimental": "To assess potential anti-inflammatory actions of individual serpin-derived peptides, peptide treatment was tested in mice after aortic allograft transplant at 4 weeks.\nNinety three mice had aortic allograft transplantation; 56 had PAI-1−/− (C57BL/6 background) donor to BALB/c (PAI-1+/+) recipient; and 37 had C57BL/6 wild type (PAI-1+/+) to BALB/c (PAI-1+/+) recipient. […] Due to the large number of surgeries required, both the PAI-1−/− and the WT mouse implants were utilized. The PAI-1−/− mice also allowed analysis of serpin response in a mouse transplant lacking a key thrombolysis regulating serpin, PAI-1. A 0.3 cm aortic segment isolated from the donor mouse was transplanted into the infra-renal aorta of recipient mice for aortic allograft studies (Table 1). The aortic transplant was anastomosed end-to-end using Sharpoint 11/0 nylon sutures (Surgical Specialties Corporation, Reiding, Mass., USA) under general anesthetic (6.5 mg/100 g body weight Somnotrol, MTC Pharmaceuticals, Cambridge, ON, Canada) given by intramuscular (i.m.) injection. WT C57BL/6 mice were purchased directly from Jackson Laboratories (Bar Harbor, Me., U.S.A.) and PAI-1−/− mice were bred in-house using mice supplied by Jackson Laboratories prior to surgery. Mice were followed for 4 weeks after transplant. […] Serpins or serpin-derived peptides were infused by intravenous (i.v.) tail vein injection immediately after transplant surgery, once aortic pulsation was again visible. At 4 weeks after aortic transplant, mice were euthanized with 0.05 ml euthanyl (Bimeda—MTC Animal Health Ltd., Cambridge, ON, Canada) by i.m. injection.\nDonor aortic transplant implants and adjacent recipient aorta (0.5-0.6 cm long) were cut into two 0.25-0.3 cm pieces, fixed, paraffin embedded, and cut into 5 μm sections (two per aortic section, providing 4 sections for analysis of each transplanted mouse aorta) and stained with Haematoxylin and eosin for morphometric analysis. Areas of plaque, lumen and internal elastic lamina were measured by means of the Olympus application program using a Sony Power HAD3CCD color video camera attached to the microscope and calibrated to the microscope objective. The mean total cross sectional area of the intima, using sections with the largest detectable plaque area, was calculated for each aortic specimen. Numbers of invading mononuclear cells were counted per high powered field area at three sites in the intimal, medial and adventitial layers and the mean count for each arterial layer and specimen calculated."}, "[2]": {"tested_on": "THP-1 monocytes", "assay": "RT-PCR signaling pathway gene expression analysis, THP-1 monocytes", "assay_type": "cell-based, human", "details": "THP-1 cells, vs saline", "from_the_text": "(§1) Shared effects of Serp-1 and S-1, one of the active Serp-1 RCL peptide inhibitors for plaque growth, on transcription of representative genes in signaling pathways were studied in human Jurkat T cell (FIG. 5A and FIG. 5B) and THP-1 monocytes (FIGS. […]). […] Serp-1 and the Serp-1 peptides (serpin-derived peptides) S-1 and S-5 were compared to saline treated controls. Genes with two-fold change in expression with P-value less than 0.05 by Student's t-test were considered significant.\n(§2) To further examine potential mechanisms of inhibitory activity for individual serpin peptides, THP-1 monocyte and Jurkat T cells in culture were treated with individual serpins or serpin-derived peptides with proven inhibitory activity for plaque growth in vivo (Viswanathan K, et al. (2009) B. J Leukoc Biol 85: 418-426; Viswanathan K, et al. (2006) Thromb Haemost 95: 499-510; Chen H, et al. (2013) Antimicrob Agents Chemother 57: 4114-4127; and Viswanathan K, et al. (2012) PLoS One 7: e44694). RT-PCR signaling pathway gene arrays (Sigma-Aldrich, St. Louis, Mo., USA) were analyzed in triplicate per cell type using predicted peptide or serpin treatment."}, "[3]": {"tested_on": "lethal viral sepsis", "details": "in vivo; cited from earlier work"}, "[4]": {"tested_on": "Jurkat T cells", "assay": "RT-PCR signaling pathway gene expression analysis, Jurkat T cells", "assay_type": "cell-based, human", "details": "vs saline", "from_the_text": "as §1, §2"}, "[5]": {"tested_on": "PMA activated THP-1 monocytes", "assay": "Membrane fluidity cell activation assay", "assay_type": "cell-based, human", "details": "peptides 500, 1000, 1500 ng/ml, Serp-1, NSP 500 ng/mL", "experimental": "Cellular membrane fluidity is measured by pyrene dimer formation in the lipid bilayer and is used as a non-specific measure of cell activation (Zalai C V, et al. (2001) J Am Coll Cardiol 38: 1340-1347). Increases in THP-1 human monocyte membrane fluidity, after PMA activation, correlate with changes in cell activation, adhesion and motility. […] Serpin-derived peptide treatments paralleled in vivo activity with the one exception being the S-4 peptide. […] All serpin-derived peptides were tested at three doses 500, 1000 and 1500 ng/ml.\nOne million >95% viable THP-1, Jurkat T, or 5×10^5 HUVEC cells were labeled with BPP (0.8 μM) for studying core membrane fluidity, three hours prior to cell activation as previously described (Viswanathan K, et al. (2009) B. J Leukoc Biol 85: 418-426; Viswanathan K, et al. (2006) Thromb Haemost 95: 499-510; Zalai C V, et al. (2001) J Am Coll Cardiol 38: 1340-1347; Viswanathan K, et al. (2012) PLoS One 7: e44694; and Christov A, et al. (2001) Lasers Surg Med 28: 414-426). […] At the end of one hour, cells were washed to remove excess fluorescent probe and monomer, excimer fluorescence emission intensities were measured at 390 nm and 485 nm, respectively, during excitation at 320 nm using a fluorescent dual wavelength reader (Fluoroskan, Thermolab systems, Oy, USA). […]"}, "[6]": {"details": "in vivo; cited from earlier work"}, "[7]": {"target": "T1, urokinase-type plasminogen activator (uPA) (Homo sapiens, UniProt P00749)", "T1 construct": "purchased Sigma U0633", "assay": "uPA chromogenic enzyme activity assay", "assay_type": "biochemical", "details": "chromogenic protease activity assay", "experimental": "Activity of purified NSP and Serp-1 was measured as inhibitory activity for uPA, using a chromogenic assay (Assaypro, St. Louis, Mo., USA) as previously described (for example, see, Dai E, et al. (2003) J Biol Chem 278: 18563-18572). Serp-1, NSP or individual peptides were mixed with enzyme solution at room temperature for one hour, per the manufacturers protocol (American Diagnostics). After incubation, 10 μl of chromogenic substrate was added. The 96-well plate was covered and placed in a wet box for overnight incubation at 37° C. After a 17 hr incubation, the plate was read at 405 nm by microplate reader (Bio-Tek Instruments). Reaction buffer (100 mM NaCl, 2 mM CaCl2, 100 mM Tris-HCl, pH 7.5, Triton X-100, 0.005%) was used for dilutions of proteases, Serp-1, NSP, or serpin peptides and chromogenic substrate. Residual protease activity was calculated with comparison to control samples without active serpin or peptides.\nSerpin inhibition activity of peptides was also assessed using assays for uPA, tPA, plamin, PAI-1 and anti-thrombin III (ATIII). […] Peptide inhibition of ATIII (ThermoFisher Scientific, Grand Island, N.Y.) was measured as a reduction in its thrombin activity. uPA (Sigma, U0633) activity towards pefachrome uPA (Enzyme Research Laboratories, South Bend, Ind., P082-33) was used for assaying peptide inhibition. […]"}, "[8]": {"details": "patients with acute unstable angina after stent implantation; cited from earlier work"}},
  "note": "Entries after “also recorded” stand apart in the source; their conditions may differ. Where a SMILES comes first, the peptide text is derived from it. Where no end group is shown, it is not given here.",
  "data": [
    {"molecule": "EVNEEGSEAAAVSGM [S-6]", "values": [
      {"measurement": "Adverse Events (kind)", "setting": "[1]; 1.5 μg/mouse", "value": "thrombosis"},
      {"measurement": "Adverse Events (number)", "setting": "[1]; 1.5 μg/mouse", "value": 1},
      {"measurement": "mortality (early thrombosis at site of aortic allograft transplant)", "setting": "[1]; 15 μg dose", "value": 100, "unit": "%"},
      {"measurement": "Adverse Events (kind)", "setting": "[1]; 15 μg/mouse", "value": "thromboses"},
      {"measurement": "Adverse Events (number)", "setting": "[1]; 15 μg/mouse", "value": 6}
    ]},
    {"molecule": "CC(C)C[C@H](NC(=O)[C@H](C)NC(=O)[C@H](CC(N)=O)NC(=O)[C@@H](N)CCCNC(=N)N)C(=O)O", "note": "[S-3, RNAL] (H-RNAL-OH; N-terminus and C-terminus assumed)", "values": [
      {"measurement": "Adverse Events (number)", "setting": "[1]; 15 μg/mouse", "value": 0}
    ]},
    {"molecule": "IAISRM [S-4, IAISRM]", "values": [
      {"measurement": "Adverse Events (number)", "setting": "[1]; 15 μg/mouse", "value": 0}
    ]},
    {"molecule": "IPRNAL [S-1, IPRNAL]", "values": [
      {"measurement": "Adverse Events (number)", "setting": "[1]; 1.5 μg/mouse", "value": 0},
      {"measurement": "Adverse Events (kind)", "setting": "[1]; 15 μg/mouse", "value": "thrombosis; also recorded: fighting injury"},
      {"measurement": "Adverse Events (number)", "setting": "[1]; 15 μg/mouse", "value": 1},
      {"measurement": "Adverse Events (number)", "setting": "[1]; 150 μg/mouse", "value": 0}
    ]},
    {"molecule": "GTTASSDTAITLIPR [S-7]", "values": [
      {"measurement": "Adverse Events (number)", "setting": "[1]; 15 μg/mouse", "value": 0}
    ]},
    {"molecule": "ISRMAV [S-2, ISRMAV]", "values": [
      {"measurement": "Adverse Events (kind)", "setting": "[1]; 15 μg/mouse", "value": "thrombosis"},
      {"measurement": "Adverse Events (number)", "setting": "[1]; 15 μg/mouse", "value": 1}
    ]},
    {"molecule": "TAIVANKPF [S-5]", "values": [
      {"measurement": "Adverse Events (number)", "setting": "[1]; 1.5 μg/mouse", "value": 0},
      {"measurement": "Adverse Events (number)", "setting": "[1]; 15 μg/mouse", "value": 0},
      {"measurement": "Adverse Events (number)", "setting": "[1]; 150 μg/mouse", "value": 0}
    ]},
    {"molecule": "MAVLYPQVIVDHPFFFLIRNR [S-8]", "values": [
      {"measurement": "Adverse Events (number)", "setting": "[1]; 15 μg/mouse", "value": 0}
    ]},
    {"molecule": "B1", "values": [
      {"measurement": "BRCA1 gene expression", "setting": "[2]", "value": "induced"},
      {"measurement": "Selectin P ligand (CD162) gene expression", "setting": "[2]", "value": "induced"},
      {"measurement": "cyclin-dependent kinase inhibitor 1B (CDKN1; p27) gene expression", "setting": "[2]", "value": "induced"},
      {"measurement": "glycogen synthase (GYS) gene expression", "setting": "[2]", "value": "induced"},
      {"measurement": "survival in mouse models of lethal viral sepsis", "setting": "[3]", "value": "improved survival"},
      {"measurement": "BCL-2 gene expression", "setting": "[4]", "value": "had no effect"},
      {"measurement": "TCF7 gene expression", "setting": "[4]", "value": "inhibited"},
      {"measurement": "CCL 20 gene expression", "setting": "[4]; data not shown", "value": "had no effect"},
      {"measurement": "CCND-1 gene expression", "setting": "[4]; data not shown", "value": "had no effect"},
      {"measurement": "MMP7 gene expression", "setting": "[4]; data not shown", "value": "had no effect"},
      {"measurement": "interleukin-8 (IL-8) gene expression", "setting": "[4]; data not shown", "value": "had no effect"},
      {"measurement": "IEx/IMon ratio (membrane fluidity)", "setting": "[5]", "value": "consistently reduced membrane fluidity significantly"},
      {"measurement": "plasma half-life", "setting": "[6]", "value": "20 to 60", "unit": "min"},
      {"measurement": "inhibition of uPA activity", "setting": "[7]", "value": "inhibited; also recorded: dose dependent with greater inhibition at the higher concentration (500 ng)"},
      {"measurement": "early markers of myocardial damage", "setting": "[8]", "value": "reduced early markers of myocardial damage"}
    ]},
    {"molecule": "B2", "values": [
      {"measurement": "IEx/IMon ratio (membrane fluidity)", "setting": "[5]", "value": "consistently reduced membrane fluidity significantly"},
      {"measurement": "Adverse Events (kind)", "setting": "[1]; 15 μg/mouse", "value": "thrombosis"},
      {"measurement": "Adverse Events (number)", "setting": "[1]; 15 μg/mouse", "value": 1},
      {"measurement": "inhibition of uPA activity", "setting": "[7]", "value": "inhibited"}
    ]}
  ]
}
